Earlier results on two substances are cited in publication PMC8442009.

Some targets named below: IL-4Rα/γc (Homo sapiens) (UniProt P24394); IL-4Rα (Homo sapiens) (UniProt P24394); γc (Homo sapiens) (UniProt P31785).
Chain of UniProt P31785 (P31785 23-262): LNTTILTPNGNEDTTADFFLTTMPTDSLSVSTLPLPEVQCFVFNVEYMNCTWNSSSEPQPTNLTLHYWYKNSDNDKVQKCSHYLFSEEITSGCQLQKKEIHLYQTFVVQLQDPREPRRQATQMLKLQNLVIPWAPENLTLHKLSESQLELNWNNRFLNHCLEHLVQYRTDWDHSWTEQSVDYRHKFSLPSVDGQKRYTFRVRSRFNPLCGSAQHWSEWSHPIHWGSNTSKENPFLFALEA

As to IL-4 (from UniProt P05112), the Kd with IL-4Rα/γc (Homo sapiens) is 0.079 nM; in the series with IL-4Rα (Homo sapiens) it was 0.266 nM.

On to IL-4-IL-4Rα (from UniProt P05112), for which the Kd with γc (Homo sapiens) is > 500 nM.

Broadly, the Kd is the equilibrium constant for the complex coming apart.
